Reference: patent US20120123099A1

Tests used:
[1] = biological target: anti-nAChR autoantibody presented on the cell surface of hybridoma Mab35 (ATCC TIB-175); assay: cell-based or functional assay
[2] = biological target: anti-nAChR autoantibody mAb35 (an autoantibody to rat nAChR), purified from supernatant of hybridoma Mab35 (ATCC TIB-175); assay: ELISA; mAb35 immobilised at 625 ng/mL, α1-Fc added, detected with HRP-labeled anti-human Fc antibody
[3] = biological target: anti-nAChR autoantibody mAb35 (an autoantibody to rat nAChR), purified from supernatant of hybridoma Mab35 (ATCC TIB-175); assay: ELISA; mAb35 immobilised at 9.8 ng/mL, α1-Fc added, detected with HRP-labeled anti-human Fc antibody
[4] = biological target: anti-nAChR autoantibody mAb35 (an autoantibody to rat nAChR), purified from supernatant of hybridoma Mab35 (ATCC TIB-175); assay: ELISA; mAb35 immobilised at 2500 ng/mL, α1-Fc added, detected with HRP-labeled anti-human Fc antibody
[5] = biological target: anti-nAChR autoantibody mAb35 (an autoantibody to rat nAChR), purified from supernatant of hybridoma Mab35 (ATCC TIB-175); assay: ELISA; mAb35 immobilised at 39.1 ng/mL, α1-Fc added, detected with HRP-labeled anti-human Fc antibody
[6] = biological target: anti-nAChR autoantibody mAb35 (an autoantibody to rat nAChR), purified from supernatant of hybridoma Mab35 (ATCC TIB-175); assay: ELISA; mAb35 immobilised at 10000 ng/mL, α1-Fc added, detected with HRP-labeled anti-human Fc antibody
[7] = biological target: anti-nAChR autoantibody mAb35 (an autoantibody to rat nAChR), purified from supernatant of hybridoma Mab35 (ATCC TIB-175); assay: ELISA; mAb35 immobilised at 156.3 ng/mL, α1-Fc added, detected with HRP-labeled anti-human Fc antibody

fusion protein α1-Fc, consisting of an N-terminal extracellular region of isoform 1 of human nAChRα1 subunit and a human antibody heavy chain Fc region (Fc fusion)
cellular cytotoxicity (%) (ADCC activity) by NK 92 effector cells on Calcein-AM-loaded hybridoma Mab35 [1]: 50%
Absorbance A450 nm [2]: 0.871 A450 nm
Absorbance A450 nm [3]: 0.505 A450 nm
Absorbance A450 nm [4]: 1.12 A450 nm
Absorbance A450 nm [5]: 0.557 A450 nm
Absorbance A450 nm [6]: 1.23 A450 nm
Absorbance A450 nm [7]: 0.659 A450 nm
